Measured values: the supplement of paper PMC11246515
± gives the standard deviation of the averaged measurements.

Experiment: total protein half-life in vivo (active degradation + dilution); higher = more stable protein
[1] = E. coli NCM3722 delta-clpP delta-lon delta-hslV, growth: N-lim chemostat, doubling time 6 h
[2] = E. coli NCM3722 delta-clpP, growth: N-lim chemostat, doubling time 6 h
[3] = E. coli NCM3722 delta-hslV, growth: N-lim chemostat, doubling time 6 h
[4] = E. coli NCM3722 delta-lon, growth: N-lim chemostat, doubling time 6 h
[5] = E. coli NCM3722 delta-smpB, growth: N-lim chemostat, doubling time 6 h
[6] = wild type E. coli NCM3722, growth: C-lim chemostat, doubling time 3 h
[7] = wild type E. coli NCM3722, growth: C-lim chemostat, doubling time 6 h
[8] = wild type E. coli NCM3722, growth: N-lim chemostat, doubling time 6 h
[9] = wild type E. coli NCM3722, growth: N-lim chemostat, doubling time 12 h
[10] = wild type E. coli NCM3722, growth: P-lim chemostat, doubling time 6 h
[11] = wild type E. coli NCM3722, growth: C-lim chemostat, doubling time 12 h
[12] = wild type E. coli NCM3722, growth: P-lim chemostat, doubling time 12 h

Row | Sequence | total protein half-life in vivo [1] | total protein half-life in vivo [2] | total protein half-life in vivo [3] | total protein half-life in vivo [4] | total protein half-life in vivo [5] | total protein half-life in vivo [6] | total protein half-life in vivo [7] | total protein half-life in vivo [8] | total protein half-life in vivo [9] | total protein half-life in vivo [10] | total protein half-life in vivo [11] | total protein half-life in vivo [12]
1 | MPRLASAVLPLCSQHPGQCGLFPLEKSLDAFAARYRLAEMAEHTLDVQYYIWQDDMSGRLLFSALLAAAKRGVRVRLLLDDNNTPGLDDILRLLDSHPRIEVRLFNPFSFRLLRPLGYITDFSRLNRRMHNKSFTVDGVVTLVGGRNIGDAYFGAGEEPLFSDLDVMAIGPVVEDVADDFARYWYCKSVSPLQQVLDVPEGEMADRIELPASWHNDAMTHRYLRKMESSPFINHLVDGTLPLIWAKTRLLSDDPAKGEGKAKRHSLLPQRLFDIMGSPSERIDIISSYFVPTRAGVAQLLRMVRKGVKIAILTNSLAANDVAVVHAGYARWRKKLLRYGVELYELKPTREQSSTLHDRGITGNSGASLHAKTFSIDGKTVFIGSFNFDPRSTLLNTEMGFVIESETLAQLIDKRFIQSQYDAAWQLRLDRWGRINWVDRHAKKEIILKKEPATSFWKRVMVRLASILPVEWLL | 5.59 ± 0.72 h | 5.95 ± 0.048 h | 5.92 ± 1.4 h | 5.31 ± 0.46 h | 5.1 ± 0.35 h | 2.78 ± 0.11 h | 5.38 ± 0.64 h | 4.78 ± 0.52 h | 11.1 ± 0.75 h | 5.59 ± 0.044 h |  | 
2 | MANWLNQLQSLLGQSSSSTSSSADQGLVKLLVPGALGGLAGLLVANKSARKLLTKYGTNALLVGGGAVAGTVLWNKYKDKIRAAHQDEPQFGAQSTPLDERTARLILALVFAAKSDGHIDAKERAAIDQQLRGAGVEEQGRVLIEQAIEQPLDPQRLATGVRNEEEALEIYFLSCAAIDIDHFMERSYLNALGDALKIPQDVRDGIERDLEQQKRTLAE | 5.293 ± 0.0053 h |  | 3.74 ± 0.12 h | 3.56 ± 0.13 h | 4.47 ± 0.86 h | 2.22 ± 0.19 h | 4.49 ± 0.37 h | 4.91 ± 1.6 h | 8.34 ± 0.38 h | 3.34 ± 0.58 h | 9.68 ± 3.4 h | 5.708 ± 0.041 h
3 | MLNERQLKIVDLLEQQPRTPGELAQQTGVSGRTILRDIDYLNFTLNGKARIFASGSAGYQLEIFERRSFFQLLQKHDNDDRLLALLLLNTFTPRAQLASALNLPETWVAERLPRLKQRYERTCCLASRPGLGHFIDETEEKRVILLANLLRKDPFLIPLAGITRDNLQHLSTACDNQHRWPLMQGDYLSSLILAIYALRNQLTDEWPQYPGDEIKQIVEHSGLFLGDNAVRTLTGLIEKQHQQAQVISADNVQGLLQRVPGIASLNIIDAQLVENITGHLLRCLAAPVWIAEHRQSSMNNLKAAWPAAFDMSLHFITLLREQLDIPLFDSDLIGLYFACALERHQNERQPIILLSDQNAIATINQLAIERDVLNCRVIIARSLSELVAIREEIEPLLIINNSHYLLDDAVNNYITVKNIITAAGIEQIKHFLATAFIRQQPERFFSAPGSFHYSNVRGESWQHITRQICAQLVAQHHITADEAQRIIAREGEGENLIVNRLAIPHCWSEQERRFRGFFITLAQPVEVNNEVINHVLIACAAADARHELKIFSYLASILCQHPAEIIAGLTGYEAFMELLHKG | 6.57 h |  |  |  |  |  |  |  |  |  |  | 
4 | MPKLRLIGLTLLALSATAVSHAEETRYVSDELNTWVRSGPGDHYRLVGTVNAGEEVTLLQTDANTNYAQVKDSSGRTAWIPLKQLSTEPSLRSRVPDLENQVKTLTDKLTNIDNTWNQRTAEMQQKVAQSDSVINGLKEENQKLKNELIVAQKKVDAASVQLDDKQRTIIMQWFMYGGGVLGLGLLLGLVLPHLIPSRKRKDRWMN [P0ADT8] |  |  | 6.56 ± 0.2 h | 6.43 ± 0.12 h | 5.94 ± 0.49 h | 3.03 ± 0.052 h | 5.84 ± 0.24 h | 5.83 ± 0.15 h | 11.8 ± 0.99 h | 5.51 ± 0.2 h | 11.1 ± 0.11 h | 12.5 ± 0.39 h
5 | MRILLIEDDMLIGDGIKTGLSKMGFSVDWFTQGRQGKEALYSAPYDAVILDLTLPGMDGRDILREWREKGQREPVLILTARDALAERVEGLRLGADDYLCKPFALIEVAARLEALMRRTNGQASNELRHGNVMLDPGKRIATLAGEPLTLKPKEFALLELLMRNAGRVLSRKLIEEKLYTWDEEVTSNAVEVHVHHLRRKLGSDFIRTVHGIGYTLGEK | 4.652 ± 0.039 h | 4.22 ± 0.3 h | 4.1 ± 0.33 h | 4.5 ± 0.27 h | 4.06 ± 0.37 h | 2.92 ± 0.042 h | 5.51 ± 0.24 h | 4.2 ± 0.12 h | 6.35 ± 0.32 h | 5.267 ± 0.0074 h | 10.8 ± 1.9 h | 11 ± 0.5 h
6 | MKTALLLEKLEGQLATLRQRCAPVSQFATLSARFDRHLFQTRATTLQACLDEAGDNLAALRHAVEQQQLPQVAWLAEHLAAQLEAIAREASAWSLREWDSAPPKIARWQRKRIQHQDFERRLREMVAERRARLARVTDLVEQQTLHREVEAYEARLARCRHALEKIENRLARLTR | 4.68 ± 0.36 h | 2.5 ± 0.12 h | 2.39 ± 0.15 h | 4.09 ± 0.54 h | 2.21 ± 0.046 h | 1.955 ± 0.0034 h | 3.69 ± 0.51 h | 2.58 ± 0.12 h | 2.85 ± 0.6 h | 2.92 ± 0.094 h | 6.06 ± 3.5 h | 5.17 ± 0.34 h
7 | MTLQQQIIKALGAKPQINAEEEIRRSVDFLKSYLQTYPFIKSLVLGISGGQDSTLAGKLCQMAINELRLETGNESLQFIAVRLPYGVQADEQDCQDAIAFIQPDRVLTVNIKGAVLASEQALREAGIELSDFVRGNEKARERMKAQYSIAGMTSGVVVGTDHAAEAITGFFTKYGDGGTDINPLYRLNKRQGKQLLAALACPEHLYKKAPTADLEDDRPSLPDEVALGVTYDNIDDYLEGKNVPQQVARTIENWYLKTEHKRRPPITVFDDFWKK | 4.93 ± 0.19 h | 5.28 ± 1.6 h | 4.91 ± 0.29 h | 5.15 ± 0.71 h | 4.58 ± 0.013 h | 3.37 ± 0.64 h | 6.28 ± 0.098 h | 4.67 ± 0.63 h | 7.98 ± 0.17 h | 5.737 ± 0.042 h | 11.06 ± 0.038 h | 11.6 ± 0.31 h
8 | MSRIIMLIPTGTSVGLTSVSLGVIRAMERKGVRLSVFKPIAQPRTGGDAPDQTTTIVRANSSTTTAAEPLKMSYVEGLLSSNQKDVLMEEIVANYHANTKDAEVVLVEGLVPTRKHQFAQSLNYEIAKTLNAEIVFVMSQGTDTPEQLKERIELTRNSFGGAKNTNITGVIVNKLNAPVDEQGRTRPDLSEIFDDSSKAKVNNVDPAKLQESSPLPVLGAVPWSFDLIATRAIDMARHLNATIINEGDINTRRVKSVTFCARSIPHMLEHFRAGSLLVTSADRPDVLVAACLAAMNGVEIGALLLTGGYEMDARISKLCERAFATGLPVFMVNTNTWQTSLSLQSFNLEVPVDDHERIEKVQEYVANYINADWIESLTATSERSRRLSPPAFRYQLTELARKAGKRIVLPEGDEPRTVKAAAICAERGIATCVLLGNPAEINRVAASQGVELGAGIEIVDPEVVRESYVGRLVELRKNKGMTETVAREQLEDNVVLGTLMLEQDEVDGLVSGAVHTTANTIRPPLQLIKTAPGSSLVSSVFFMLLPEQVYVYGDCAINPDPTAEQLAEIAIQSADSAAAFGIEPRVAMLSYSTGTSGAGSDVEKVREATRLAQEKRPDLMIDGPLQYDAAVMADVAKSKAPNSPVAGRATVFIFPDLNTGNTTYKAVQRSADLISIGPMLQGMRKPVNDLSRGALVDDIVYTIALTAIQSAQQQ [P0A9M8] | 6.116 ± 0.01 h | 5.89 ± 0.68 h | 6.22 ± 0.38 h | 6.08 ± 0.32 h | 5.973 ± 0.042 h | 3.14 ± 0.039 h | 5.61 ± 0.24 h | 6.14 ± 0.12 h | 11.99 ± 0.054 h | 6.32 ± 0.58 h | 11 ± 0.26 h | 11.8 ± 0.43 h
